Assays:
[1] = substrate: O=C(O)CCC(=O)C(=O)O; assay: DNFB precolumn derivatization HPLC of 4-HIL; Michaelis-Menten fit; type: biochemical, Bacillus cereus; settings: 20 mM L-Ile, assay: 1 mM FeSO4, 5 mM ascorbic acid, PBS pH 7.0, 30°C
Source text: (§1) DNFB precolumn derivatization HPLC of 4-HIL; Michaelis-Menten fit on L-isoleucine hydroxylase (IDO)

[2] = substrate: CC[C@H](C)[C@H](N)C(=O)O; assay: as above; type: biochemical, Bacillus cereus; settings: 20 mM alpha-KG, assay: 1 mM FeSO4, 5 mM ascorbic acid, PBS pH 7.0, 30°C
Source text: as §1

B1: L-isoleucine hydroxylase (IDO) (Bacillus cereus ATCC 14579) (protein)
chain: MTFVLSKMNGFSIEEKVHEFESKGFLEISNEIFLQEEENHRLLTQAQLDYYNLEDDAYGECRARSYSRYIKYVDSPDYILDNSNDYFQSKEYNYDDGGKVRQFNSINDSFLCNPLIQNIVRFDTEFAFKTNIIDTSKDLIIGLHQVRYKATKERPSFSSPIWLHKDDEPVVFLHLMNLSNTAIGGDNLIANSPREINQFISLKEPLETLVFGQKVFHAVTPLGTECSTEAFRDILLVTFSYKETK
notes: full-length, 6xHis tag (downstream primer, C-terminal) kept; free cysteines C61, C112, C226; GenBank AE016877.1 is a whole-genome record (B. cereus ATCC 14579), not a gene record
[1]
  Km: 3340 µM
  kcat: 0.32 s⁻¹
  kcat/Km: 90 M⁻¹ s⁻¹
[2]
  Km: 260 µM
  kcat: 0.84 s⁻¹
  kcat/Km: 3180 M⁻¹ s⁻¹
